Experimental data: US20200255508A1

Tests used:
[1] = molecular target: cynomolgus monkey DLL4 extracellular domain (cynomolgus monkey); experiment: Biacore SPR
[2] = molecular target: cyno DLL4-his (cynomolgus monkey); experiment: ELISA on DLL4-his

B1: E9-SE7 (antibody, V domains shown)
VH: EVQLVESGGGLVQPGGSLRLSCAVSGGSISSSSYYWGWIRQAPGKGLEWIGDIYYTGSTYYNPSLKSRVTISVDTSKNSFYLQMNSLRAEDTAVYYCAREDVILRGGSDYWGQGTLVTVSS
VL: EYVLTQSPDFQSVTPKEKVTITCSGQRLGDKYASWYQQKPDQSPKLVIYEDSKRPSGVPSRFSGSNSGDDATLTINSLEAEDAATYYCQAWDRDTGVFGQGTKVEIKR
With B1 the Kd [1] was 7.53 nM and the EC50 [2] was 0.12 nM.

B2: E9-SE5 (antibody, V domains shown)
VH: EVQLQESGPGLVKPSETLSLTCTVSGGSISSSSYYWGWIRQPPGKGLEWIGDIYYTGSTYYNPSLKSRVTISVDTSKNQFSLKLSSVTAADTAVYYCAREDVILRGGSDYWGQGTLVTVSS
VL: EYVLTQSPDFQSVTPKEKVTITCSGQRLGDKYASWYQQKPDQSPKLVIYEDSKRPSGVPSRFSGSNSGDDATLTINSLEAEDAATYYCQAWDRDTGVFGQGTKVEIKR
Binder B2 has a Kd [1] of 6.7 nM and an EC50 [2] of 0.13 nM.

B3: E9-SE8 (antibody, V domains shown)
VH: EVQLQESGPGLVKPGETLSLTCTVSGGSISSSSYYWGWIRQAPGKGLEWIGDIYYTGSTYYNPSLKSRVTISVDTSKNQFYLKLSSVRAEDTAVYYCAREDVILRGGSDYWGQGTLVTVSS
VL: EYVLTQSPDFQSVTPKEKVTITCSGQRLGDKYASWYQQKPDQSPKLVIYEDSKRPSGVPSRFSGSNSGDDATLTINSLEAEDAATYYCQAWDRDTGVFGQGTKVEIKR
Work on B3 yielded a Kd [1] of 3.41 nM and an EC50 [2] of 0.14 nM.

B4: E9-SE1 (antibody, V domains shown)
VH: EVQLVESGGGLVQPGGSLRLSCAVSGGSISSSSYYWGWIRQAPGKGLEWIGDIYYTGSTYYNPSLKSRVTISVDTSKNSFYLQMNSLRAEDTAVYYCAREDVILRGGSDYWGQGTLVTVSS
VL: LYVLTQPPSVSVSPGQTASITCSGQRLGDKYASWYQQKPGQSPVLVIYEDSKRPSGIPERFSGSNSGDTATLTISGTQTMDEADYLCQAWDRDTGVFGGGTKVTVLG
B4 showed a Kd [1] of 5.42 nM and an EC50 [2] of 0.14 nM.

B5: E9-SE2 (antibody, V domains shown)
VH: EVQLVESGGGLVQPGGSLRLSCAVSGGSISSSSYYWGWIRQAPGKGLEWIGDIYYTGSTYYNPSLKSRVTISVDTSKNSFYLQMNSLRAEDTAVYYCAREDVILRGGSDYWGQGTLVTVSS
VL: SYELTQPPSVSVSPGQTASITCSGQRLGDKYASWYQQKPGQSPVLVIYEDSKRPSGIPERFSGSNSGDTATLTISGTQPMDEADYYCQAWDRDTGVFGYGTRVTVLG
Binder B5 has a Kd [1] of 3.68 nM and an EC50 [2] of 0.14 nM.

B6: E9.4 (antibody, V domains shown)
VH: EVQLQESGPGLVKPSETLSLTCTVSGGSISSSSYYWGWIRQPPGKGLEWIGDIYYTGSTYYNPSLKSRVTISVDTSKNQFSLKLSSVTAADTAVYYCARYDVSLGGSSDHWGQGTLVTVSS
VL: SYELTQPPSVSVSPGQTASITCSGQRLGDKYASWYQQKPGQSPVLVIYEDSKRPSGIPERFSGSNSGDTATLTISGTQPMDEADYYCQAWDRDTGVFGYGTKVTVL
For B6, the Kd [1] was 0.25 nM, the koff [1] was 3.44e-05 s⁻¹ and the kon [1] was 137000 M⁻¹ s⁻¹.

B7: E9.14 (antibody, V domains shown)
VH: EVQLQESGPGLVKPSETLSLTCTVSGGSISNSRYHWGWIRQSPGKGLEWIGDIYYTGSTYYNPSLKSRVTISVDTSKNQFSLKLSSVTAEDTAVYYCAREDVILRGGSDYWGQGTLVTVSS
VL: SYELTQPPSVSVSPGQTASITCSGQRLGDKYASWYQQKPGQSPVLVIYEDSKRPSGIPERFSGSNSGDTATLTISGTQPMDEADYYCQAWDRDTGVFGYGTKVTVL
With B7 the Kd [1] was 6.75 nM, the koff [1] was 0.000386 s⁻¹ and the kon [1] was 57200 M⁻¹ s⁻¹.

B8: E9.18 (antibody, V domains shown)
VH: EVQLQESGPGLVKPSETLSLTCTVSGGSISSSGYYWGWIRQPPGKGLEWIGDINYAGSTYYNPSLKSRVTISVDTSKNQFSLKLSSVTAADTAVYYCAREDVILRGGSDYWGQGTLVTVSS
VL: SYELTQPPSVSVSPGQTASITCSGQRLGDKYASWYQQKPGQSPVLVIYEDSKRPSGIPERFSGSNSGDTATLTISGTQPMDEADYYCQAWDRDTGVFGYGTKVTVL
B8 showed a Kd [1] of 1 nM, a koff [1] of 2.63e-05 s⁻¹ and a kon [1] of 26300 M⁻¹ s⁻¹.

B9: E9-SE3 (antibody, V domains shown)
VH: EVQLQESGPGLVKPGETLSLTCTVSGGSISSSSYYWGWIRQAPGKGLEWIGDIYYTGSTYYNPSLKSRVTISVDTSKNQFYLKLSSVRAEDTAVYYCAREDVILRGGSDYWGQGTLVTVSS
VL: SYELTQPPSVSVSPGQTASITCSGQRLGDKYASWYQQKPGQSPVLVIYEDSKRPSGIPERFSGSNSGDTATLTISGTQPMDEADYYCQAWDRDTGVFGYGTRVTVLG
Work on B9 yielded a Kd [1] of 3.42 nM and an EC50 [2] of 0.14 nM.

B10: E9.38 (antibody, V domains shown)
VH: EVQLQESGPGLVKPSETLSLTCTVSGGSISSSSYYWGWIRQPPGKGLEWIGDIYYTGSTYYNPSLKSRVTISVDTSKNQFSLKLSSVTAADTAVYYCAREDVILRGGSDYWGQGTLVTVSS
VL: SYELTQPPSVSVSPGQTASITCSGQRLGDKYVSWYQQKPGQSPVLVIYEDSKRPSGIPERFSGSNSGDTATLTISGTQPMDEADYYCQAWDRDVGVFGSGTKVTVL
For B10, the Kd [1] was 1.44 nM, the koff [1] was 3.47e-05 s⁻¹ and the kon [1] was 24200 M⁻¹ s⁻¹.

B11: E9.17 (antibody, V domains shown)
VH: EVQLQESGPGLVKPSETLSLTCTVSGGSISSSSYYWGWIRQPPGKGLEWIGDIYYTGSTYYNPSLKSRVTISVDTSKNQFSLKLSSVTAADTAVYYCAREEAILGGGSDYWGQGTLVTVSS
VL: SYELTQPPSVSVSPGQTASITCSGQRLGDKYASWYQQKPGQSPVLVIYEDSKRPSGIPERFSGSNSGDTATLTISGTQPMDEADYYCQAWDRDTGVFGYGTKVTVL
B11 was tested, and the Kd [1] was 0.16 nM, the koff [1] was 1.23e-05 s⁻¹ and the kon [1] was 75100 M⁻¹ s⁻¹.

B12: E9.65 (antibody, V domains shown)
VH: EVQLQESGPGLVKPSETLSLTCTVSGGSIRNSRYHWGWIRQPPGKGLEWIGDIYYTGSTYYNPSLKGRVTISVDTSKNQFSLKLSSVTAADTAVYYCAREDVILRGGSDYWGQGTLVTVSS
VL: SYELTQPPSVSVSPGQTASITCSGQRLGDKYASWYQQKPGQSPVLVIYEDSKRPSGIPERFSGSNSGDTATLTISGTQPMDEADYYCQAWDRDTGVFGYGTKVTVL
For B12, the Kd [1] was 12.9 nM, the koff [1] was 0.000414 s⁻¹ and the kon [1] was 32100 M⁻¹ s⁻¹.

B13: E9.11 (antibody, V domains shown)
VH: EVQLQESGPGLVKPSETLSLTCTVSGGSISSSSYYWGWIRQPPGKGLEWIGDIYYTGSTYYNPSLKSRVTISVDTSKNQFSLKLSSVTAADTAVYYCAREAVPLGGGSDYWGQGTLVTVSS
VL: SYELTQPPSVSVSPGQTASITCSGQRLGDKYASWYQQKPGQSPVLVIYEDSKRPSGIPERFSGSNSGDTATLTISGTQPMDEADYYCQAWDRDTGVFGYGTKVTVL
Work on B13 yielded a Kd [1] of 0.17 nM, a koff [1] of 8.9e-06 s⁻¹ and a kon [1] of 53100 M⁻¹ s⁻¹.

B14: E9-SE6 (antibody, V domains shown)
VH: EVQLQESGPGLVKPGETLSLTCTVSGGSISSSSYYWGWIRQAPGKGLEWIGDIYYTGSTYYNPSLKSRVTISVDTSKNQFYLKLSSVRAEDTAVYYCAREDVILRGGSDYWGQGTLVTVSS
VL: LYVLTQPPSVSVSPGQTASITCSGQRLGDKYASWYQQKPGQSPVLVIYEDSKRPSGIPERFSGSNSGDTATLTISGTQTMDEADYLCQAWDRDTGVFGGGTKVTVLG
In the case of B14, the Kd [1] is reported as 6.55 nM and the EC50 [2] is reported as 0.13 nM.

B15: E9.66 (antibody, V domains shown)
VH: EVQLQESGPGLVKPSETLSLTCTVSGGSISSSSYYWGWIRQPPGKGLEWIGDIYYTGSTYYNPSLKSRVTISVDTSKNQFSLKLSSVTAADTAVYYCAREGVPLGGGADKWGQGTLVTVSS
VL: SYELTQPPSVSVSPGQTASITCSGQRLGDKYASWYQQKPGQSPVLVIYEDSKRPSGIPERFSGSNSGDTATLTISGTQPMDEADYYCQAWDRDTGVFGYGTKVTVL
In the case of B15, the Kd [1] is reported as 0.14 nM, the koff [1] is reported as 9.1e-06 s⁻¹ and the kon [1] is reported as 65500 M⁻¹ s⁻¹.

B16: E9.48 (antibody, V domains shown)
VH: EVQLQESGPGLVKPSETLSLTCTVSGGSISSSGYYWGWIRQPPGKGLEWIGDINYRGSTYYNPSLKSRVTISVDTSKNQFSLKLSSVTAADTAVYYCAREDVILRGGSDYWGQGTLVTVSS
VL: SYELTQPPSVSVSPGQTASITCSGQRLGDKYASWYQQKPGQSPVLVIYEDSKRPSGIPERFSGSNSGDTATLTISGTQPMDEADYYCQAWDRDTGVFGYGTKVTVL
For B16, the Kd [1] was 4.71 nM, the koff [1] was 7.91e-05 s⁻¹ and the kon [1] was 16800 M⁻¹ s⁻¹.

B17: E9.22 (antibody, V domains shown)
VH: EVQLQESGPGLVKPSETLSLTCTVSGGSISNSRYHWGWIRQPPGKGLEWIGDIYYTGSTYYNPSLKGRVTISVDTSKNQFSLKLSSVTAADTAVYYCAREDVILRGGSDYWGQGTLVTVSS
VL: SYELTQPPSVSVSPGQTASITCSGQRLGDKYASWYQQKPGQSPVLVIYEDSKRPSGIPERFSGSNSGDTATLTISGTQPMDEADYYCQAWDRDTGVFGYGTKVTVL
Work on B17 yielded a Kd [1] of 6.26 nM, a koff [1] of 0.000352 s⁻¹ and a kon [1] of 56200 M⁻¹ s⁻¹.

B18: E9.16 (antibody, V domains shown)
VH: EVQLQESGPGLVKPSETLSLTCTVSGGSISSSSYYWGWIRQPPGKGLEWIGDIYYTGSTYYNPSLKSRVTISVDTSKNQFSLKLSSVTAADTAVYYCAREDVILRGGSDYWGQGTLVTVSS
VL: SYELTQPPSVSVSPGQTASITCSGERLGDKYVSWYQQKPGQSPVLVIYEDFKRPSGIPERFSGSNSGDTATLTISGTQPMDEADYYCQAWDRDTGVFGYGTKVTVL
B18 showed a Kd [1] of 1.52 nM, a koff [1] of 3.79e-05 s⁻¹ and a kon [1] of 24900 M⁻¹ s⁻¹.

B19: E9-SE4 (antibody, V domains shown)
VH: EVQLQESGPGLVKPSETLSLTCTVSGGSISSSSYYWGWIRQPPGKGLEWIGDIYYTGSTYYNPSLKSRVTISVDTSKNQFSLKLSSVTAADTAVYYCAREDVILRGGSDYWGQGTLVTVSS
VL: LYVLTQPPSVSVSPGQTASITCSGQRLGDKYASWYQQKPGQSPVLVIYEDSKRPSGIPERFSGSNSGDTATLTISGTQTMDEADYLCQAWDRDTGVFGGGTKVTVLG
B19 was tested, and the Kd [1] was 3.92 nM and the EC50 [2] was 0.14 nM.

B20: E9.13 (antibody, V domains shown)
VH: EVQLQESGPGLVKPSETLSLTCTVSGGSISSSSYYWGWIRQPPGKGLEWIGDIYYTGSTYYNPSLKSRVTISVDTSKNQFSLKLSSVTAADTAVYYCAREDVILRGGSDYWGQGTLVTVSS
VL: SYELTQPPSVSVSPGQTASITCSGDTLGDKYVSWYQQKPGQSPVLVIYEDSERPSGIPERFSGSNSGDTATLTISGTQPMDEADYYCQAWDSETGVFGSGTKVTVL
For B20, the Kd [1] was 0.63 nM, the koff [1] was 4.95e-05 s⁻¹ and the kon [1] was 79200 M⁻¹ s⁻¹.
